Results reported in paper PMC3065461, “A Transient Homotypic Interaction Model for the Influenza A Virus NS1 Protein Effector Domain” (PLoS ONE, 2011).

Molecular target: the molecule itself
Experiment: SEC; gel filtration of the purified EDs; data not shown

Protein	stoichiometry N
PR8 NS1 effector domain (ED), wild type, residues 73-230 (domain or fragment, also called PR8 ED; PR8 NS1 ED) SDEALKMTMASVPASRYLTDMTLEEMSRDWSMLIPKQKVAGPLCIRMDQAIMDKNIILKANFSVIFDRLETLILLRAFTEEGAIVGEISPLPSLPGHTAEDVKNAVGVLIGGLEWNDNTVRVSETLQRFAWRSSNENGRPPLTPKQKREMAGTIRSEV	2
Alb/76 NS1 effector domain (ED), residues 73-230 (domain or fragment, also called Alb/76 ED; Alb/76 NS1 ED) TDENLKIAIASSPAPRYITDMSIEEISREWYMLMPRQKITGGLMVKMDQAIMDKRITLKANFSVLFDQLETLVSLRAFTDDGAIVAEISPIPSMPGHSTEDVKNAIGILIGGLEWNDNSIRASENIQRFAWGIRDENGGPPLPPKQKRYMARRVESEV	2
